Substitutions are numbered along the chain they refer to. In names and notes the source's numbering stands.

Two molecules from doi:10.1101/2025.06.14.659664 (bioRxiv, 2025) can be followed below.

For the assay, the target named is UbcH8 (UniProt O14933 1-153). As to the kind of experiment: NMR titration.
Chain of UbcH8 (O14933 whole entry): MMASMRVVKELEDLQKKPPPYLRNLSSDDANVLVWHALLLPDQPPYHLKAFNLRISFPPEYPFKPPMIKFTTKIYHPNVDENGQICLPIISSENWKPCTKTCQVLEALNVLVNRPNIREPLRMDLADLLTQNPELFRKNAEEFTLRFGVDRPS

B1: GBI-Uba7-UFD fusion protein (human Uba7 ubiquitin-fold domain, residues 903-1011), wild type (domain or fragment, UniProt P41226 903-1011, looked up)
chain: IQTFHHLKWTSWDRLKVPAGQPERTLESLLAHLQEQHGLRVRILLHGSALLYAAGWSPEKQAQHLPLRVTELVQQLTGQAPAPGQRVLVLELSCEGDDEDTAFPPLHYE
Regarding B1, the binding result was “binds”.

B2: GBI-Uba7-UFD A1004C mutant (domain or fragment, human, UniProt P41226 903-1011, looked up)
chain: B1 chain with A102C
As for B2, the binding result is “binds”.
